In the RNAGym collection of RNA variant scans (doi:10.1073/pnas.2313332121):

B1: TPR t1 (parent)
chain: GACCAAUCUGCCCUCAGAGCUCGAGAACAUCUUCGGAUGCAGAGGAGGCAGGCUUCGGUGGCGCGAUAGCGCCAACGUCCUCAACCUCCAAUGCAUCCCACCACAUGAUGAUGCCUGAAGAGCCUUGGUUUUUUG

Variants of: B1
Assay: polymerase ribozyme fitness, log enrichment relative to wild type (log ratio); higher = more active; in vitro selection for triplet polymerase activity
How it was run: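 PCR was used to build mutant libraries for each subunit of a heterodimeric triplet polymerase ribozyme, which were then transcribed. A single in vitro selection round, in triplicate, used a frozen incubation at −7 °C and recovered extended constructs by gel excision, streptavidin beads and RT-PCR. Fitness is the logarithm of genotype enrichment relative to wild-type enrichment, averaged over replicates with inverse-variance weights. The logarithm is base 2, and after Illumina sequencing only genotypes with ≥10 input reads and ≥1 read per output were kept.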

| Variant | polymerase ribozyme fitness (log ratio) |
| --- | --- |
| GACCAAUCUGCCCUCAGAGCUCGAGAACAUCUUCGGAUGCAGGGGAGGCUGGCUUCGGUGGCGCGAUAGCUCCAACGUCCUCAACCUCCAAUGCAUCCCACCACAUGAUGAUGCCUGAAGAGCCUUGGUUUUUUG [A43G A50U G71U] | -5.61 |
| GACCAAUCUGCCCUCAGAGCUCGAGAACAUCUUCGGAUGCAGCGGAGGCAGGCUUCGGUGGCGCGAUAGCGCCAACGUCCUCAACCUCCAAUGCAUCCCACCACAUGAUGAGGCCUGAAGAGCCUUGGUUUUUUG [A43C U112G] | -2.77 |
| GACCAAUCUGCCCUCAGAGCUCGAGAACAUCUUCGGAUGCAGCGGAGGCAGGCUCCGGUGGCGUGAUAGCGCCAACGUCCUCAGCCUCCAAUGCAUCCCACCACAUGAUUAUGCCUGAAGAGCCAUGGUUUUUUG [A43C U55C C64U A84G G110U U125A] | -6.14 |
| GACCAAUCUGCCCUCAGAGCUCGAGAACAUCUUCGGAUGCAGGGGAGGCAGGCUUCGGUCGCGCGAUAGCGCAAACGUCCUCAACCUACAAUGCAUCCCACCACAUGAUGAUGCCUGAAGAGCCUUGGUUUUUUG [A43G G60C C73A C88A] | -3.87 |
| GACCAAUCUGCCCUCAGAGCUCGAGAACAUCUUCGGAUGCAGGGGAGGCAGGCUUCGGUGGCGCGAUAGCGCCAACGUCCUCAACCUCCAAUGCAUCCCACCACAUGAUGAUGCCUGAAUAGCCUUGGUUUUUUG [A43G G120U] | -1.47 |
| GACCAAUCUGCCCUCAGAGCUCGAGAACAUCUUCGGAUGCAGGGGAGGCUGGCUUCGGUGGAGCGAUAGCGCCAACGUCCUCAACCUCCGAUGCAUCCCACCACAUGAUGAUGCCUGAAGAGCCUUGGUUAUUUG [A43G A50U C62A A90G U131A] | -5.99 |
| GACCAAUCUGCCCUCAGAGCUCGAGAACAUCUUCGGAUGCAGGGGAGUCAGGCUUCGGUGGCGCGAUAGCGCCAACGUCCUCAACCUCCAAUGCAUCCCACCACAUGAUGAUGUCUGAAGAGCCUUGGUUUUUUG [A43G G48U C114U] | -2.07 |
| GACCAAUCUGCCCUCAGAGCUCGAGAACAUCUUCGGAUGCAGGGGAGGCAGGCUUCGGUGGCGCGAUAGCGCCAACGUCCUGAACCUCCAAUGCAUCCCACCACAUGAUGAUGUCUGAGGAGCCUUGGUUAUUUG [A43G C82G C114U A119G U131A] | -2.01 |
| GACCAAUCUGCCCUCAGAGCUCGAGAACAUCUUCGGAUGCAGGGGAGGCAGGCUUCGGUGGCGCGAUAGCGCCAACGUCCUCAACUUCCAUUGCAUCCCAUCACAUGAUGAUGCCUGAAGAGCCUUGGUUAUUUG [A43G C86U A91U C101U U131A] | -1.79 |
| GACCAAUCUGCCCUCAGAGCUCGAGAACAUCUUCGGAUGCAGGGGAGGCAGGAUUCGGUGGCGCGAUAGCGCCAACGUCCUCAACCUCGAAUGCAUGCCACCACAUGAUGAUGCCUGAAGAGGCUUGGUUUUUUG [A43G C53A C89G C97G C123G] | -5.57 |
| GACCAAUCUGCCCUCAGAGCUCGAGAACAUCUUCGGAUGCAGGGGAGGCAGGAUUCGGUGGCGCGAUAGCGCCAACGUCCUCAACCUCCAAUGCAUCCCACCACAUGAUGAUGCCUGAAGAGCCUUGGUUUUUUG [A43G C53A] | -2.39 |
| GACCAAUCUGCCCUCAGAGCUCGAGAACAUCUUCGGAUGCAGGGGAGGAAGGCUUCGGUGGCGCGAUAGCGCCAACGUCCUCAACCUCCAAUGCAUCCCACCACAUGAUGAUGCCUGAAGAGCCUUGGUUUUUUG [A43G C49A] | -2.37 |
| GACCAAUCUGCCCUCAGAGCUCGAGAACAUCUUCGGAUGCAGGGGAGGCAGGCUUCGGUAGCGCGAUAGCGCCAACGUUCUCAACCUCCAAUACAUCCCACCACAUGAUGAUGCCUGAAGAGCCUUGGUUUUUUG [A43G G60A C79U G93A] | -2.95 |
| GACCAAUCUGCCCUCAGAGCUCGAGAACAUCUUCGGAUGCAGGGGAGGCAGGCUUCGGUGGCGUGAUAGCGCCAACGUCCUGAACCUCCAAUGCAUCCCACCACAUGAUGAUGUCUGAGGAGCCUUGGUUAUUUG [A43G C64U C82G C114U A119G U131A] | -1.99 |
| GACCAAUCUGCCCUCAGAGCUCGAGAACAUCUUCGGAUGCAGCGGAGGCAGGCUCCGGUGGCGCGAUAGCGCCAACGUCCUCAACCUCCAAUGCAUCCCACCACAUGAUGAUGCCUGAAGAGCCUUGGUGUUUUG [A43C U55C U130G] | -2.82 |
| GACCAAUCUGCCCUCAGAGCUCGAGAACAUCUUCGGAUGCAGGUGUGGCAGGCUUCGGUGGCGCGAUAGCGCCAACGUCCUCAACCUCCAAUGCAUCCCACCACAUGAUGAUGCCUGAAGAGCCUUGGUUUUAUG [A43G G44U A46U U133A] | -2.67 |
| GACCAAUCUGCCCUCAGAGCUCGAGAACAUCUUCGGAUGCAGGGGAGGCAGGCUUCGGUGGCGCGAUAGCGACAACGUCCUCAACCUCCAAUGCAUCCCACUACAUGAUGAUGGCUGAAGAGCCUUGGUUUUUUG [A43G C72A C102U C114G] | -4.55 |
| GACCAAUCUGCCCUCAGAGCUCGAGAACAUCUUCGGAUGCAGGGGAGGCAGGCUUCGGUGGCGCGAUAGCGCCAACGUCUUCAACCUCCAAUGCAUCCCACCACAUGAUGAUGCCUGAAGAGCCUUGGUUUUUUG [A43G C80U] | -2.86 |
| GACCAAUCUGCCCUCAGAGCUCGAGAACAUCUUCGGAUGCAGGUGUGGCAGGCUUCGGUGGCGCGAUAGCGCCAACGUCCUCAACCUCCAAUGCAUCCCACCACAUGAUGAUGCCUGAAGAGCCUUGGUUUUUUG [A43G G44U A46U] | -2.25 |
| GACCAAUCUGCCCUCAGAGCUCGAGAACAUCUUCGGAUGCAGGGGAGGCAGGCUUCGGUGGCGCGAUAGCGCCAACGUCCUCAACCUCCAAUGCAUCCCACCACAUGAUGAUGUCUGAAGAGCCUUGGUUUUUUG [A43G C114U] | -1.57 |
| GACCAAUCUGCCCUCAGAGCUCGAGAACAUCUUCGGAUGCAGGGGAGGCAGGCUUCGGUGGCGCGAUAACGCCAACGUCCUCAACCUCCAAUGCAUCCCACCACAUGAUGAUGCCUGAAGAGCCUUGGUUUUUUG [A43G G69A] | -6.04 |
